One block for each binder: values may come before it.
What was measured:
[1] = target: recombinant CD3 proteins; assay: Octet (BLI), bispecific antibody against recombinant CD3 proteins
[2] = target: CD3 on effector cells (human Pan-T or PBMC) (human, UniProt P07766 23-207; P04234 22-171; P09693 23-182; P20963 22-164); assay: cell-based or functional assay
[3] = target: T1, recombinant CD3 proteins (UniProt P07766 23-126); assay: Octet BLI, recombinant CD3; Full R^2 0.9881
T1 construct: elsewhere it uses human CD3 E/D and E/G heterodimers

[4] = target: T1, recombinant CD3 proteins; assay: Octet BLI, recombinant CD3; Full R^2 0.8253
[5] = target: T1, recombinant CD3 proteins; assay: Octet BLI, recombinant CD3; Full R^2 0.9905
[6] = target: T1, recombinant CD3 proteins; assay: Octet BLI, recombinant CD3; Full R^2 0.9882

T1 sequence (P07766 23-126): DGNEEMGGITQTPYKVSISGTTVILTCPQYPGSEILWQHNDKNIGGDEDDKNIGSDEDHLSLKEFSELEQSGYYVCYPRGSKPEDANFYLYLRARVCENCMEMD
Sequence of CD3 on effector cells (human Pan-T or PBMC) (P07766 23-207, chain 1 of 4): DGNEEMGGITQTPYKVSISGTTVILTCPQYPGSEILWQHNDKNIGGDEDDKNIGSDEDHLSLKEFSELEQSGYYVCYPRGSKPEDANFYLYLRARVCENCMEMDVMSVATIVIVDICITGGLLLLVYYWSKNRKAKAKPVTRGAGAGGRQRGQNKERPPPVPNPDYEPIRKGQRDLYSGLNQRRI
Sequence of CD3 on effector cells (human Pan-T or PBMC) (P04234 22-171, chain 2 of 4): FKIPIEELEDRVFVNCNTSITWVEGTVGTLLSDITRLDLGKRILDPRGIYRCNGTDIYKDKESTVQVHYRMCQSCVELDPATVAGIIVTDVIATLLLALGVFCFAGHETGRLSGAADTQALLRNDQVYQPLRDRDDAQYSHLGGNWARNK
Sequence of CD3 on effector cells (human Pan-T or PBMC) (P09693 23-182, chain 3 of 4): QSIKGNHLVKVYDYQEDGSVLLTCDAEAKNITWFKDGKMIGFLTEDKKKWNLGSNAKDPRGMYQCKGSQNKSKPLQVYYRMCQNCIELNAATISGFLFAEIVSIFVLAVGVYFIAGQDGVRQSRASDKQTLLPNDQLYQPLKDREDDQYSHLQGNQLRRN
Sequence of CD3 on effector cells (human Pan-T or PBMC) (P20963 22-164, chain 4 of 4): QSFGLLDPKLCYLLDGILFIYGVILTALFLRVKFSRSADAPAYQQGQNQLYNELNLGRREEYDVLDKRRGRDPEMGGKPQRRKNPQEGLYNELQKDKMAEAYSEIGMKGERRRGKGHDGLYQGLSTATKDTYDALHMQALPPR

B3: CD3 × CD33-BspAb70 (bispecific antibody)
chain 1: EVQLVESGGGLVKPGGSLRLSCAASGFTFSSYSMKWVRQAPGKCLEWVSSISSSSSYIYYADSVKGRFTISRDNAKNSLYLQMNSLRAEDTAVYYCARDRGELTLWYWGQGTLVTVSSGGGGSGGGGSGGGGSGGGGSSYELTQPPSVSVSPGQTARITCSGDALPKKYAYWYQQKSGQAPVLVIYEDSKRPSGIPERFSGSSSGTMATLTISGAQVEDEADYYCYSTDSSGNHWVFGCGTKLTVLDKTHTCPPCPAPEFEGGPSVFLFPPKPKDTLMISRTPEVTCVVVDVSHEDPEVKFNWYVDGVEVHNAKTKPREEQYNSTYRVVSVLTVLHQDWLNGKEYKCKVSNKALPASIEKTISKAKGQPREPQVYTLPPCREEMTKNQVSLWCLVKGFYPSDIAVEWESNGQPENNYKTTPPVLDSDGSFFLYSKLTVDKSRWQQGNVFSCSVMHEALHNHYTQKSLSLSPGK
chain 2: EVQLVQSGAEVKKPGSSVKVSCKASGYTITDSNIHWVRQAPGQSLEWIGYIYPYNGGTDYNQKFKNRATLTVDNPTNTAYMELSSLRSEDTAFYYCVNGNPWLAYWGQGTLVTVSSASTKGPSVFPLAPSSKSTSGGTAALGCLVKDYFPEPVTVSWNSGALTSGVHTFPAVLQSSGLYSLSSVVTVPSSSLGTQTYICNVNHKPSNTKVDKRVEPKSCDKTHTCPPCPAPEFEGGPSVFLFPPKPKDTLMISRTPEVTCVVVDVSHEDPEVKFNWYVDGVEVHNAKTKPREEQYNSTYRVVSVLTVLHQDWLNGKEYKCKVSNKALPASIEKTISKAKGQPREPQVCTLPPSREEMTKNQVSLSCAVKGFYPSDIAVEWESNGQPENNYKTTPPVLDSDGSFFLVSKLTVDKSRWQQGNVFSCSVMHEALHNRFTQKSLSLSPGK
chain 3: DIQLTQSPSTLSASVGDRVTITCRASESLDNYGIRFLTWFQQKPGKAPKLLMYAASNQGSGVPSRFSGSGSGTEFTLTISSLQPDDFATYYCQQTKEVPWSFGQGTKVEVKRTVAAPSVFIFPPSDEQLKSGTASVVCLLNNFYPREAKVQWKVDNALQSGNSQESVTEQDSKDSTYSLSSTLTLSKADYEKHKVYACEVTHQGLSSPVTKSFNRGEC
Kd [4]: 9.11 nM
koff [4]: 0.00554 s⁻¹
kon [4]: 609000 M⁻¹ s⁻¹

B4: CD3 × CD33-BspAb80 (bispecific antibody)
chain 1: QVQLQESGPGLVKPSETLSLTCTVSGGSISSYYWSWIRQPAGKCLEWIGRIYTSGSTKYNPSLKSRVTMSVDTSKNQFSLKLISVTAADTAVYFCARERIRDLYFDYWGQGTLVTVSSGGGGSGGGGSGGGGSGGGGSNFMLTQPHSVSESPGKTVTISCTRTSGSIASNYVQWYQQRPGSSPTTVIYEDNQRPSGVPDRFSGSIDSSSNSASLTISGLKTEDEAAYYCQSYDRSNRVFGCGTKLTVLDKTHTCPPCPAPEFEGGPSVFLFPPKPKDTLMISRTPEVTCVVVDVSHEDPEVKFNWYVDGVEVHNAKTKPREEQYNSTYRVVSVLTVLHQDWLNGKEYKCKVSNKALPASIEKTISKAKGQPREPQVYTLPPCREEMTKNQVSLWCLVKGFYPSDIAVEWESNGQPENNYKTTPPVLDSDGSFFLYSKLTVDKSRWQQGNVFSCSVMHEALHNHYTQKSLSLSPGK
chain 2: EVQLVQSGAEVKKPGSSVKVSCKASGYTITDSNIHWVRQAPGQSLEWIGYIYPYNGGTDYNQKFKNRATLTVDNPTNTAYMELSSLRSEDTAFYYCVNGNPWLAYWGQGTLVTVSSASTKGPSVFPLAPSSKSTSGGTAALGCLVKDYFPEPVTVSWNSGALTSGVHTFPAVLQSSGLYSLSSVVTVPSSSLGTQTYICNVNHKPSNTKVDKRVEPKSCDKTHTCPPCPAPEFEGGPSVFLFPPKPKDTLMISRTPEVTCVVVDVSHEDPEVKFNWYVDGVEVHNAKTKPREEQYNSTYRVVSVLTVLHQDWLNGKEYKCKVSNKALPASIEKTISKAKGQPREPQVCTLPPSREEMTKNQVSLSCAVKGFYPSDIAVEWESNGQPENNYKTTPPVLDSDGSFFLVSKLTVDKSRWQQGNVFSCSVMHEALHNRFTQKSLSLSPGK
chain 3: DIQLTQSPSTLSASVGDRVTITCRASESLDNYGIRFLTWFQQKPGKAPKLLMYAASNQGSGVPSRFSGSGSGTEFTLTISSLQPDDFATYYCQQTKEVPWSFGQGTKVEVKRTVAAPSVFIFPPSDEQLKSGTASVVCLLNNFYPREAKVQWKVDNALQSGNSQESVTEQDSKDSTYSLSSTLTLSKADYEKHKVYACEVTHQGLSSPVTKSFNRGEC
Kd [5]: 6.06 nM
koff [5]: 0.00186 s⁻¹
kon [5]: 308000 M⁻¹ s⁻¹

B5: CD3 × CD33-BspAb67 (bispecific antibody)
chain 1: not shown
chain 2: EVQLVQSGAEVKKPGSSVKVSCKASGYTITDSNIHWVRQAPGQSLEWIGYIYPYNGGTDYNQKFKNRATLTVDNPTNTAYMELSSLRSEDTAFYYCVNGNPWLAYWGQGTLVTVSSASTKGPSVFPLAPSSKSTSGGTAALGCLVKDYFPEPVTVSWNSGALTSGVHTFPAVLQSSGLYSLSSVVTVPSSSLGTQTYICNVNHKPSNTKVDKRVEPKSCDKTHTCPPCPAPEFEGGPSVFLFPPKPKDTLMISRTPEVTCVVVDVSHEDPEVKFNWYVDGVEVHNAKTKPREEQYNSTYRVVSVLTVLHQDWLNGKEYKCKVSNKALPASIEKTISKAKGQPREPQVCTLPPSREEMTKNQVSLSCAVKGFYPSDIAVEWESNGQPENNYKTTPPVLDSDGSFFLVSKLTVDKSRWQQGNVFSCSVMHEALHNRFTQKSLSLSPGK
chain 3: DIQLTQSPSTLSASVGDRVTITCRASESLDNYGIRFLTWFQQKPGKAPKLLMYAASNQGSGVPSRFSGSGSGTEFTLTISSLQPDDFATYYCQQTKEVPWSFGQGTKVEVKRTVAAPSVFIFPPSDEQLKSGTASVVCLLNNFYPREAKVQWKVDNALQSGNSQESVTEQDSKDSTYSLSSTLTLSKADYEKHKVYACEVTHQGLSSPVTKSFNRGEC
Kd [6]: 5.57 nM
koff [6]: 0.00234 s⁻¹
kon [6]: 421000 M⁻¹ s⁻¹

Now from value to binder, other results behind:

Kd [1]: 50.3 nM
Response [1]: 0.3
koff [1]: 0.0121 s⁻¹
kon [1]: 241000 M⁻¹ s⁻¹
B1: Control Humanized anti-CD3 (low affinity) scFv-Fc knob/TM, as bispecific with gemtuzumab (bispecific antibody)
scFv: EVQLVESGGGLVQPGGSLRLSCAASGFTFSTYAMNWVRQAPGKGLEWVGRIRSKYNNYATYYADSVKGRFTISRDDSKNTLYLQMNSLRAEDTAVYYCVRHGNFGDSYVSWFDYWGQGTLVTVSSGKPGSGKPGSGKPGSGKPGSQAVVTQEPSLTVSPGGTVTLTCGSSTGAVTTSNYANWVQQKPGKSPRGLIGGTNKRAPGVPARFSGSLLGGKAALTISGAQPEDEADYYCALWYSNHWVFGGGTKLTVLGGGGSDKTHTCPPCPAPEFEGGPSVFLFPPKPKDTLMISRTPEVTCVVVDVSHEDPEVKFNWYVDGVEVHNAKTKPREEQYNSTYRVVSVLTVLHQDWLNGKEYKCKVSNKALPASIEKTISKAKGQPREPQVYTLPPCREEMTKNQVSLWCLVKGFYPSDIAVEWESNGQPENNYKTTPPVLDSDGSFFLYSKLTVDKSRWQQGNVFSCSVMHEALHNHYTQKSLSLSPGK
heavy: EVQLVQSGAEVKKPGSSVKVSCKASGYTITDSNIHWVRQAPGQSLEWIGYIYPYNGGTDYNQKFKNRATLTVDNPTNTAYMELSSLRSEDTAFYYCVNGNPWLAYWGQGTLVTVSSASTKGPSVFPLAPSSKSTSGGTAALGCLVKDYFPEPVTVSWNSGALTSGVHTFPAVLQSSGLYSLSSVVTVPSSSLGTQTYICNVNHKPSNTKVDKRVEPKSCDKTHTCPPCPAPEFEGGPSVFLFPPKPKDTLMISRTPEVTCVVVDVSHEDPEVKFNWYVDGVEVHNAKTKPREEQYNSTYRVVSVLTVLHQDWLNGKEYKCKVSNKALPASIEKTISKAKGQPREPQVCTLPPSREEMTKNQVSLSCAVKGFYPSDIAVEWESNGQPENNYKTTPPVLDSDGSFFLVSKLTVDKSRWQQGNVFSCSVMHEALHNRFTQKSLSLSPGK
light: DIQLTQSPSTLSASVGDRVTITCRASESLDNYGIRFLTWFQQKPGKAPKLLMYAASNQGSGVPSRFSGSGSGTEFTLTISSLQPDDFATYYCQQTKEVPWSFGQGTKVEVKRTVAAPSVFIFPPSDEQLKSGTASVVCLLNNFYPREAKVQWKVDNALQSGNSQESVTEQDSKDSTYSLSSTLTLSKADYEKHKVYACEVTHQGLSSPVTKSFNRGEC
RTCC EC50 (nM), KILR HL-60 T Cell Redirection cytotoxic assay with CD33-expressing target cells [2]: 1.48 nM

Kd [3]: 69.4 nM
koff [3]: 0.00791 s⁻¹
kon [3]: 114000 M⁻¹ s⁻¹
B2: CD3 × CD33-BspAb81 (bispecific antibody)
chain 1: QVQLQESGPGLVKPSQTLSLTCTVSGGSISSGGYYWSWIRQHPGKCLEWIGYIYYSGSTYYNPSLKSRVTISVDTSKDQFSLKLSSVTAADTAVYYCARERKTSLPFDIWGQGTMVTVSSGGGGSGGGGSGGGGSGGGGSNFMLTQPHSVSESPGKTVTISCTRSSGSIASNYVQWYQQRPGSSPTTVIYEDNQRPSGVPDRFSGSIDSSSNSASLTISGLKTEDEAYYYCQSFDSSNRVFGCGTKLTVLDKTHTCPPCPAPEFEGGPSVFLFPPKPKDTLMISRTPEVTCVVVDVSHEDPEVKFNWYVDGVEVHNAKTKPREEQYNSTYRVVSVLTVLHQDWLNGKEYKCKVSNKALPASIEKTISKAKGQPREPQVYTLPPCREEMTKNQVSLWCLVKGFYPSDIAVEWESNGQPENNYKTTPPVLDSDGSFFLYSKLTVDKSRWQQGNVFSCSVMHEALHNHYTQKSLSLSPGK
chain 2: EVQLVQSGAEVKKPGSSVKVSCKASGYTITDSNIHWVRQAPGQSLEWIGYIYPYNGGTDYNQKFKNRATLTVDNPTNTAYMELSSLRSEDTAFYYCVNGNPWLAYWGQGTLVTVSSASTKGPSVFPLAPSSKSTSGGTAALGCLVKDYFPEPVTVSWNSGALTSGVHTFPAVLQSSGLYSLSSVVTVPSSSLGTQTYICNVNHKPSNTKVDKRVEPKSCDKTHTCPPCPAPEFEGGPSVFLFPPKPKDTLMISRTPEVTCVVVDVSHEDPEVKFNWYVDGVEVHNAKTKPREEQYNSTYRVVSVLTVLHQDWLNGKEYKCKVSNKALPASIEKTISKAKGQPREPQVCTLPPSREEMTKNQVSLSCAVKGFYPSDIAVEWESNGQPENNYKTTPPVLDSDGSFFLVSKLTVDKSRWQQGNVFSCSVMHEALHNRFTQKSLSLSPGK
chain 3: DIQLTQSPSTLSASVGDRVTITCRASESLDNYGIRFLTWFQQKPGKAPKLLMYAASNQGSGVPSRFSGSGSGTEFTLTISSLQPDDFATYYCQQTKEVPWSFGQGTKVEVKRTVAAPSVFIFPPSDEQLKSGTASVVCLLNNFYPREAKVQWKVDNALQSGNSQESVTEQDSKDSTYSLSSTLTLSKADYEKHKVYACEVTHQGLSSPVTKSFNRGEC

— patent US20260167721A1 (ABLEXIS, published 2026)
